Among the targets are collagen V; fibrinogen; α5β1 integrin (UniProt P08648).
Common to all, as to test: ELISA; binding of recombinant InvL to α5β1 integrin, collagen V, fibrinogen, mucin or BSA (negative control); two biological replicates; protocol based on ref. 50, details in the supplemental material
Background: In an ELISA, binding on a coated surface is turned into a signal by an enzyme label.

UniProt P08648, sequence (P08648 42-1049, chain 1 of 2): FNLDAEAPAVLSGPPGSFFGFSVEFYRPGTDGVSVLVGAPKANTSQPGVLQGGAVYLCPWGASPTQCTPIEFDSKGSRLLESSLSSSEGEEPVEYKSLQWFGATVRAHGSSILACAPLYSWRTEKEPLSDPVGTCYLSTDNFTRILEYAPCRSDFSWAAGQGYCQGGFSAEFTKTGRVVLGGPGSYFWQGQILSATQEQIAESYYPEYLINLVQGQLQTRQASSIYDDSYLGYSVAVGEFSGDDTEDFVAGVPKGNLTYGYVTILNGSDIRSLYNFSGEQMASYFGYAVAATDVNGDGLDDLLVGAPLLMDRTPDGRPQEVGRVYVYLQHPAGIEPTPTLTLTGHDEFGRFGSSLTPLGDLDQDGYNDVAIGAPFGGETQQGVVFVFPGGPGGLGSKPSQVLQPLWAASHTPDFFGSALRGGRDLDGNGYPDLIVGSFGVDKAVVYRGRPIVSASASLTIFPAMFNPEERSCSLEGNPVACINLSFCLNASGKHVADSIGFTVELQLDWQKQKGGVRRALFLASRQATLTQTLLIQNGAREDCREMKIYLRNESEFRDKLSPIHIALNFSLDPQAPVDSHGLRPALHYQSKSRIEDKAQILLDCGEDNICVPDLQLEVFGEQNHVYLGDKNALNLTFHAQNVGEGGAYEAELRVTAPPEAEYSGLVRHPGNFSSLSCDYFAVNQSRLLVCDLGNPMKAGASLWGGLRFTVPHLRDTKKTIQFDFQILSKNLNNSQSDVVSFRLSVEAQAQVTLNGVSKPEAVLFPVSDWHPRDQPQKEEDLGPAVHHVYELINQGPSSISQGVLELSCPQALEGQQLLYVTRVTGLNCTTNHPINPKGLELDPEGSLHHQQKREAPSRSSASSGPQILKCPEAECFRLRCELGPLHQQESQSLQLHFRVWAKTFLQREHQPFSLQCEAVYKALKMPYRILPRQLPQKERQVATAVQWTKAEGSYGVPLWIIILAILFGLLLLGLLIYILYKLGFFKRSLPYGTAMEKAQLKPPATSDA
UniProt P08648, sequence (P05556 21-798, chain 2 of 2, further chain): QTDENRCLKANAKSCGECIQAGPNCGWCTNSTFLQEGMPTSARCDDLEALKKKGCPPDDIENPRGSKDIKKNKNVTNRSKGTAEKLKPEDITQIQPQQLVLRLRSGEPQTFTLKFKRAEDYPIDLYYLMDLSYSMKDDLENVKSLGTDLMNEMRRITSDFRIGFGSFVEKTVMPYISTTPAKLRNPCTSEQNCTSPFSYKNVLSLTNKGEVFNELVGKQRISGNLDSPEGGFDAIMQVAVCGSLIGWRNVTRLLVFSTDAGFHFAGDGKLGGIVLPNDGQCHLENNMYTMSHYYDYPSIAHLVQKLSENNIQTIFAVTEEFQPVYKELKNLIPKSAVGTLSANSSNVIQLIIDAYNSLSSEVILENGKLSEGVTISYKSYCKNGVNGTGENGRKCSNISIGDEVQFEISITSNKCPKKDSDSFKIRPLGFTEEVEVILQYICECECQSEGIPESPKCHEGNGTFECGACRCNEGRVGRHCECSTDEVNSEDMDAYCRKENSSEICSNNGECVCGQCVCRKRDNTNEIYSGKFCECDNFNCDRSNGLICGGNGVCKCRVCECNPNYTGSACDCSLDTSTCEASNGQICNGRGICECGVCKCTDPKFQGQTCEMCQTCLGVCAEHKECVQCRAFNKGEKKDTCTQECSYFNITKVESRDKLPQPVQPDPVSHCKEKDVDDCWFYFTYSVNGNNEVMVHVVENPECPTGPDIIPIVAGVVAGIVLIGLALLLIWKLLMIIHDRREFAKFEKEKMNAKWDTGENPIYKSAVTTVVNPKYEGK

As usually defined, the Kd is the constant that tells how readily two partners part at equilibrium. “soluble recombinant InvL lacking the N-terminal signal sequence, with a C-terminal His10 tag (natural protein)”: the results for the dissociation constant Kd with collagen V, with fibrinogen and with α5β1 integrin were 15000 nM, 0.19 nM and 0.38 nM, respectively.

Source of the values: publication PMC9245377.
